Laboratory results taken from patent US11530240B2, “Catheter injectable cyclic peptide pro-gelators for myocardial tissue engineering” (The Regents of the University of California, priority 2017, dated 2022).
Bridges are numbered along the chain shown (N, C = ends). Where no end group is shown, it is not given here. rhodamine = 5(6)-carboxytetramethylrhodamine label attached at the N-terminus

How the values were obtained:
[1] = Viscoelastic measurements of functionalized SAP hydrogels (gel capacity); type: physicochemical; conditions: 15 mg/mL in 1×DPBS, 2.5 rad/s
Procedure: (§1) Rheological characterization. All peptide samples were prepared at 10 mM peptide, except for those used to assess the effect of SAP functionalization with respect to weight (15 mg/mL). Viscous and viscoelastic properties were assessed using a stress-controlled rheometer (TA Instruments AR-02) equipped with a Peltier plate to control temperature and a 20 mm diameter parallel plate geometry. Unless otherwise stated all measurements were taken at an angular frequency of 2.5 rad s^−1, strain of 0.5%, and temperature of 37° C. Measurements were performed with a gap height of 1000 μm and repeated three times (except for step-strain tests) to ensure reproducibility. To prevent water evaporation, mineral oil was wrapped around the edge of the geometry at the air-sample interface. For viscoelastic measurements the apparatus was used in oscillatory mode. […] The dynamic moduli of the hydrogels were measured as a function of frequency in the range 0_25-100 rad s^−1 at a strain of 0.5%. Continuous step-strain oscillations were used to monitor hydrogel healing through disruption (3 min, 100% strain) and recovery (15 min. 0.5% strain) cycles (n=3). Temperature sweeps were measured by increasing the apparatus temperatures from 21-40° C. at a ramp rate of 0.5° C./min. […] The viscosity of the samples was measured as a function of shear rate in the range 0.1-10 s^−1 (5% tolerance.

Thermolysin [2] = target: T1, Thermolysin (Bacillus thermoproteolyticus, UniProt P00800); assay: Time course rheological analysis of bulk gelation after thermolysin addition; type: physicochemical; set-up: purchased Promega V400A; conditions: 10 mM in 1×DPBS, thermolysin 1:4500 added at t=40 min, 37° C.
T1 sequence (P00800 233-548): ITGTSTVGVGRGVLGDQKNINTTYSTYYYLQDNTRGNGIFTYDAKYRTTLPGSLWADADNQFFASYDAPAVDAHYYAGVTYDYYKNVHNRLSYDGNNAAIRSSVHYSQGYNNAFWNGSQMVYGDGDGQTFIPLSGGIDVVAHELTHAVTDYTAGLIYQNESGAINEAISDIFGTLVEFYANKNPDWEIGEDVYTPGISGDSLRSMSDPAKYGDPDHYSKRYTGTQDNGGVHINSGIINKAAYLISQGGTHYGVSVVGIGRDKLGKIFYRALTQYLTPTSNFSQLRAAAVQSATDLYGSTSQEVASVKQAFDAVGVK
Procedure: as §1

[3] = target: T2, MMP-9 (recombinant human catalytic domain) (Homo sapiens, UniProt P14780); assay: In vitro enzyme cleavage of cyclic progelator by MMP-9; type: biochemical; conditions: 1:1000 enzyme/substrate, 5 hr; denatured enzyme elicited no response
T2 construct: MMP-9 (recombinant human catalytic domain); purchased Enzo Life Sciences BML-SEro360
Excerpt: (§2) Transmission electron microscopy (TEM).
(§3) In vitro enzyme cleavage of cyclic peptide progelator. […] Control samples utilized denatured enzymes under the same conditions.

[4] = target: T3, Porcine pancreatic elastase (Sus scrofa, UniProt P00772); assay: In vitro enzyme cleavage of cyclic progelator by elastase; type: biochemical; conditions: 1:250 enzyme/substrate, 5 hr; denatured enzyme elicited no response
T3 construct: purchased EMD Millipore 3246821000U
Excerpt: as §2, §3

Thermolysin [5] = target: T1, Thermolysin; conditions: 1:4500 enzyme/substrate
Procedure: General information. […] Thermolysin (V400A) was acquired from Promega, as a lyophilized powder.
In vitro enzyme cleavage of cyclic peptide progelator. Unless otherwise stated, enzyme cleavage experiments were performed on progelator at a final concentration of 500 μM in 1× enzyme cleavage buffers. […] Thermolysin cleavages were performed at 1:4500 enzyme/substrate molar ratio in 1× buffer (1×DPBS, pH 7.4) for 15 min. […] Control samples utilized denatured enzymes under the same conditions. […] Thermolysin was inactivated by incubation with 10% (v/v) EDTA (0.5 M, pH 8.0)

red blood cells (RBCs) = assay: Hemolysis of red blood cells (RBCs); type: cell-based, human; conditions: positive (normalization) control 1% Triton X-100; isolated RBCs, 1 hr incubation; n=4
Procedure: (§4) Hemocompatibility analysis.
Hemolysis assay. Acute toxicity of cyclic peptide progelator was measured with a RBC hemolysis assay specific to biomacromolecular drug analysis, as previously described.^73 Averages (n=4) and standard error of the mean (SEM) for absorbance measurements (at 540 nm) were plotted.

whole human blood [6] = assay: Activated clotting times (ACT) with whole human blood; conditions: positive control, collagen 0.095 mg/mL
Procedure: as §4
Activated clotting times (ACT) with whole human blood. A Hemochron 801 instrument calibrated with an electronic system verification (ESV) device was used to measure activated clotting time (ACT) of whole human blood. Activated clotting times (ACT) were determined using recalcified citrated whole human blood to minimize variability in starting time points for clotting in all assays.^71 To each Hemochron P214 tube with glass beads was added 4 μL CaCl2 (1.1 M) and 36 μL peptide stock or additive (12.2× final blood concentration). Samples were mixed thoroughly for 30 s to soak the glass beads and incubated 30 s at 37° C. Citrated whole human blood (400 μL) was then added (t=0 s), mixed by hand for 10 s, and added to the instrument. Time points at which the magnet was displaced by clot formation were recorded by the instrument. Collagen (0.095 mg/mL) was used as a positive control to […] clotting time. Vehicle (1×DPBS) served as a standard for blood without additive. Samples without calcium, serving as the negative control, exceeded instrument maximum time range (>1500 sec). Each experiment was performed n=6 times with averages and standard error of the mean (SEM) plotted.

whole human blood [7] = assay: Whole blood hemostasis kinetics (non-activated whole blood clotting assay); conditions: positive controls; recalcified whole human blood
Procedure: as §4
Whole blood hemostasis kinetics. Changes to time-dependent hemostasis were monitored using a non-activated whole blood clotting assay.^72 Briefly, 100 μL of citrated whole human was mixed with 10 μL of peptide or collagen stock (11.5× final blood concentration) and 5 μL of CaCl2 (230 mM). Collagen (0.095 mg/mL) and glass coverslips were used as positive controls to increase clotting rates from an additive and contact initiated perspective, respectively. […] Aliquots (100 μL) were transferred to a 12-well TCP, covered, and incubated at r.t. for 5 min, 15 min, 30 min, and 45 min. Each sample was prepared in triplicate. At the end of each time point, RBCs not caught in the thrombus were lysed by gently adding 3 mL distilled H2O and incubating for 5 min. Each well was sampled (200 μL), taking care not to disturb the clot, and transferred to a 96 well plate for analysis. Released hemoglobin from lysis was detected by measuring the absorbance at 405 nm (height 4.0 mm, 100 flashes) using a plate reader. Extent of clotting is inversely proportional to measured absorbance. Averages (n=3) and standard error of the mean (SEM) are plotted.

T3 sequence (P00772 27-266): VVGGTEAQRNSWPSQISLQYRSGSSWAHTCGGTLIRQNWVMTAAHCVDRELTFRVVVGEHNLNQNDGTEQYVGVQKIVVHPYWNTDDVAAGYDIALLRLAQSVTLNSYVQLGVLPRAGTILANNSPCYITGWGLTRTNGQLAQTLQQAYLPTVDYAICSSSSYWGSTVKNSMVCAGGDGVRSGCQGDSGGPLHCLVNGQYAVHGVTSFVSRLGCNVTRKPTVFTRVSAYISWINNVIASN
T2 sequence (P14780 107-444 limits assumed): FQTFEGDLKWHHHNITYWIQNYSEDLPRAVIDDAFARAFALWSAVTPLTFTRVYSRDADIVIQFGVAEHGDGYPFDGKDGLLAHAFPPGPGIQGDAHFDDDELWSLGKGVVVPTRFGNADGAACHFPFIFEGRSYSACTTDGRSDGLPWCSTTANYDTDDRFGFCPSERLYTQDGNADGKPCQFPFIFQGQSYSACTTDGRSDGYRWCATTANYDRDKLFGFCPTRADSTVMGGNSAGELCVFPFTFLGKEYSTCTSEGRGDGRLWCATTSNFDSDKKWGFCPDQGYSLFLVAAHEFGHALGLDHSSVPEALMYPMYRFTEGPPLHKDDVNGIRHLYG

## C(KFDF)3PLGLAGC (SEQ ID NO: 7) (CKFDFKFDFKFDFPLGLAGC) [KFDF (SEQ ID NO:1)Linear, modified linear SAP primed for cyclization, no fluorescent label]
[1]
  gelling capacity (tanδ<1) and strain tolerance vs unmodified SAP: no significant disruptive effects to gelling capacity

## C(KLDL)3PLGLAGC (SEQ ID NO: 6) (CKLDLKLDLKLDLPLGLAGC) [KLDL (SEQ ID NO:5)Linear, modified linear SAP primed for cyclization, no fluorescent label]
[1]
  gelling capacity (tanδ<1) and strain tolerance vs unmodified SAP: no significant disruptive effects to gelling capacity

## CKLDLKLDLKLDLPLGLAGC (SEQ ID NO:6) (disulfide 1-20) [KLDL (SEQ ID NO:5)Cyclic, unlabeled cyclized enzyme-responsive progelator]
Thermolysin [2]
  time at which steady state of shear moduli (G′, G″) was reached: 200 min

## Rho-KFDF (SEQ ID NO:1)Cyclic: rhodamine labeled cyclized KFDF progelator (SEQ ID NO:7) (rhodamine-CKFDFKFDFKFDFPLGLAGC; disulfide 1-20)
[3]
  response to active MMP-9 cleavage (visual, TEM): induced visible aggregation in the reaction vial and entangled fibrous meshes by TEM
[4]
  response to active elastase cleavage (visual, TEM): induced visible aggregation in the reaction vial and entangled fibrous meshes by TEM
Thermolysin [5]
  response to thermolysin incubation (TEM): induced fiber formation by TEM

## Rho-KLDL (SEQ ID NO:5)Cyclic: rhodamine labeled cyclized KLDL progelator (SEQ ID NO:6) (rhodamine-CKLDLKLDLKLDLPLGLAGC; disulfide 1-20)
[3]
  response to active MMP-9 cleavage (visual, TEM): induced visible aggregation in the reaction vial and entangled fibrous meshes by TEM
[4]
  response to active elastase cleavage (visual, TEM): induced visible aggregation in the reaction vial and entangled fibrous meshes by TEM
Thermolysin [5]
  response to thermolysin incubation (TEM): induced fiber formation by TEM

## Triton X-100 [1% Triton X-100]
Red blood cells (RBCs)
  % Hemolysis: 100.00%

## collagen [reference compound]
Whole human blood [6]
  effect on clot time vs vehicle (ACT): significant clot time reduction
Whole human blood [6]; whole human blood, n=6
  Activated clotting time (ACT), Average Time: 150 s
Whole human blood [7]
  clot rate (hemostasis kinetics): increased the clot rate
